Assay results from patent publication US20220324957A1 (OPSIDIO, published 2022).
Numbering of substitutions follows the chain as printed.

B1: humanized 5H10 VH3/VK3 (antibody, human IgG4, V domains shown)
VH: QVQLVQSGAEVKKPGSSVKVSCKSSGYAFSSYWMNWVRQRPGQGLEWIGQIYPGDGDTHYNGKFKGKATLTADKSTSTAYMELSSLRSEDTAVYFCSSSNWVGSYWGQGTLVTVSS
VL: DVVMTQSPLSLPVTLGQPASISCKSSQSLLESDGKTYLNWLQQRPGQSPRRLIYLVSRLDSGVPDRFSGSGSGTDFTLKISRVEAEDVGVYYCWQGTHLPQTFGGGTKVEIK
notes: Only variable domains are tied to the name; Humanized from the chimeric antibody, which has a human IgG4 backbone and a kappa light chain
B2: humanized 5H10 VH1/VK3 (antibody, human IgG4, V domains shown)
VH: B1 VH with V11L, V20I, R38K, R87T, T91S
VL: B1 VL
notes: as for B1
B3: humanized 5H10 VH4/VK3 (antibody, human IgG4, V domains shown)
VH: B1 VH with K67R, A68V, L70I
VL: B1 VL
notes: as for B1
B4: 5H10 VH0/VK0 (chimeric) (antibody, V domains shown)
VH: QVQLQQSGAELVRPGSSVKISCKSSGYAFSSYWMNWVKQRPGQGLEWIGQIYPGDGDTHYNGKFKGKATLTADKSSSTAYMQLSRLTSEDSAVYFCSSSNWVGSYWGQGTLVTVSA
VL: not shown
notes: also called chimeric 5H10
B5: humanized 5H10 VH2/VK3 (antibody, human IgG4, V domains shown)
VH: B1 VH with V20I, R38K
VL: B1 VL
notes: as for B1
B6: humanized 5H10 VH4/VK2 (antibody, human IgG4, V domains shown)
VH: B1 VH with K67R, A68V, L70I
VL: B1 VL with S68T
notes: as for B1
B7: humanized 5H10 VH3/VK2 (antibody, human IgG4, V domains shown)
VH: B1 VH
VL: B1 VL with S68T
notes: as for B1
B8: murine 5H10 antibody (antibody, V domains shown)
VH: B4 VH
VL: not shown
notes: Mouse hybridoma monoclonal with a kappa light chain; It was conjugated to a fluorescent marker for flow cytometry and to pHrodo red for the internalisation assay; also called OpSCF; m5H10

These binders were tested against T1, human stem cell factor isoform SCF248 (hSCF248) (human, UniProt P21583 26-273) (assay: binding score on Sl/Sl4 hSCF248 cells).
T1 construct: also called soluble SCF
T1 sequence (P21583 26-273 limits assumed): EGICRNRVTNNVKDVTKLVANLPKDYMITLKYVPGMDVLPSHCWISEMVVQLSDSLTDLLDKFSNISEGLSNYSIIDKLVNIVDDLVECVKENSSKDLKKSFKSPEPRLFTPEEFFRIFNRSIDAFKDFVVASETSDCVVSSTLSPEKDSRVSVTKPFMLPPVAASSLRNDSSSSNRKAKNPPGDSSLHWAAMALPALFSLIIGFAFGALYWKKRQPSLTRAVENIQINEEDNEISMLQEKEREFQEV

| binding result | Binder |
| --- | --- |
| binds | B1 |
| binds | B2 |
| binds | B3 |
| binds | B4 |
| binds | B5 |
| binds | B6 |
| binds | B7 |

What follows are binders tested against T1, human stem cell factor isoform SCF248 … (assay: flow cytometry, directly labelled antibody on Sl/Sl4 hSCF248 cells).
Protocol: Binding of the labeled antibody to the cells was assessed by flow cytometry.

| binding result | Binder |
| --- | --- |
| binds | B8 |
